Results taken from patent US20190241662A1 (ADAGENE, published 2019).
Read-outs that look alike come from different tables or passages of the source.

T1: mouse CD86 (mouse, UniProt P42082 24-244, limits assumed)
T1 sequence (looked up): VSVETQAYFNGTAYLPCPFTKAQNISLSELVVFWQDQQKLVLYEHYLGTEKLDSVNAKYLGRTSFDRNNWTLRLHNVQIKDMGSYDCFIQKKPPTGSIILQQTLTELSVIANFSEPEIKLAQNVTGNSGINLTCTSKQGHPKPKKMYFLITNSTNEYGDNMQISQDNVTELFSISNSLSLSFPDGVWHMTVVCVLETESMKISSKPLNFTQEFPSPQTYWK

T2: human CD80 (human, UniProt P33681 35-242, limits assumed)
T2 construct: constructs not described; also called biotinylated CD80; CD80-Fc-Bio
T2 sequence (looked up): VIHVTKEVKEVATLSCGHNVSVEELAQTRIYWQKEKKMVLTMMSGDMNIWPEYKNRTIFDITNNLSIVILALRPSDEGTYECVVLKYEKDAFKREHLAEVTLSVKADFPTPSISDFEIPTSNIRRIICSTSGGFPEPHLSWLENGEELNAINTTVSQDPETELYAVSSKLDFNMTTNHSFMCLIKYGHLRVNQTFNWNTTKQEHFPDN

T3: human CD86 (human, UniProt P42081 24-247, limits assumed)
T3 construct: constructs not described; also called recombinant human CD86 fused with human Fc; CD86-Fc-Bio
T3 sequence (looked up): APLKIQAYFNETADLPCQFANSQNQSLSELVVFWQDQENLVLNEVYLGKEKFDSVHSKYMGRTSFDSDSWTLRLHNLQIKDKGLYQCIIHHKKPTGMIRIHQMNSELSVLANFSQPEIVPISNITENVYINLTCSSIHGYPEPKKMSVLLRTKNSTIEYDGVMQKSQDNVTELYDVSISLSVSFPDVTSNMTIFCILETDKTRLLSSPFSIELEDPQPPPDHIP

T4: recombinant human CTLA4-Fc (human, UniProt P16410 36-162)
T4 construct: also called human CTLA4 fused with human FC fragment; CTLA4-Fc (Sino Biological, 11159-H03H)
T4 sequence (looked up): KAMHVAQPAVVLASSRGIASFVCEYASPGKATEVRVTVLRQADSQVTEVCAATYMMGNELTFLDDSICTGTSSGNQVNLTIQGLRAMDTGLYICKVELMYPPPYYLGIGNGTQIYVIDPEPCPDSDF


Key:
[1] = target: T1, mouse CD86; test: yeast-display flow cytometry, Normalized FACS Bound
[2] = target: T2, human CD80; test: as above
[3] = target: T3, human CD86; test: as above
[4] = target: T4, recombinant human CTLA4-Fc; test: ELISA; EC50 divided by the EC50 of TY21580
Experimental: (§1) Plates were blocked with PBS supplemented with 3% non-fat milk at 37° C. for 1 hour. After washing, 100 μL of 3-fold serial dilutions of antibodies were added to each well. After incubation at 37° C. for 1 hour, plates were washed four times, and 100 μL HRP conjugated anti-human IgG (Fab specific) (1:6000 dilution) was added to each well. Plates were incubated at 37° C. for 1 hour, washed four times, and then 50 μL TMB substrate solution was added to each well, and the plate was incubated at room temperature. […] The EC₅₀ was evaluated by fitting the ELISA data using the asymmetrical sigmoidal (five-parameter logistic equation) model of GraphPad Prism 6 software.

[5] = target: T4, recombinant human CTLA4-Fc; test: ELISA, coated human CTLA4-Fc (as in Example 8)
Experimental: as §1

[6] = target: T4, recombinant human CTLA4-Fc; test: ELISA, coated human CTLA4-Fc (as in Example 8); remark: listed apart in the source
Experimental: as §1

binding result [1]	binding result [2]	binding result [3]	masking efficiency [4]	EC50 [5] [nM]	EC50 [6] [nM]	Binder
binds	binds	binds	–	–	–	human CTLA4 mutant ADSQVT42TNDQMT displayed on yeast (receptor, also called human CC' loop motif changed to the mouse motif) KAMHVAQPAVVLASSRGIASFVCEYASPGKATEVRVTVLRQTNDQMTEVCAATYMMGNELTFLDDSICTGTSSGNQVNLTIQGLRAMDTGLYICKVELMYPPPYYLGIGNGTQIYVIDPE
binds	binds	binds	–	–	–	human CTLA4 mutant LGI106AAA displayed on yeast (receptor) KAMHVAQPAVVLASSRGIASFVCEYASPGKATEVRVTVLRQADSQVTEVCAATYMMGNELTFLDDSICTGTSSGNQVNLTIQGLRAMDTGLYICKVELMYPPPYYAAAGNGTQIYVIDPE
–	–	–	168	37.3	–	TY22775 (antibody, V domains shown) VH: EVQLVESGGGLVQPGGSLRLSCAASGYSISSGYHWSWIRQAPGKGLEWLARIDWDDDKYYSTSLKSRLTISRDNSKNTLYLQLNSLRAEDTAVYYCARSYVYFDYWGQGTLVTVSS VL: EVGHSDCDAFYPYCDSSGRSAGGGGTPLGLAGSGGSDIQLTQSPSSLSASVGDRVTITCRASQSVRGRFLAWYQQKPGKAPKLLIYDASNRATGIPSRFSGSGSGTDFTLTISSLQPEDFATYYCQQSSSWPPTFGQGTKVEIKR
–	–	–	–	–	117	TY22864 (antibody, V domains shown) VH: EVQLVESGGGLVQPGGSLRLSCAASGYSISSGYHWSWIRQAPGKGLEWLARIDWDDDKYYSTSLKSRLTISRDNSKNTLYLQLNSLRAEDTAVYYCARSYVYFDYWGQGTLVTVSS VL: DIQLTQSPSSLSASVGDRVTITCRASQSVRGRFLAWYQQKPGKAPKLLIYDASNRATGIPSRFSGSGSGTDFTLTISSLQPEDFATYYCQQSSSWPPTFGQGTKVEIKR
–	–	–	296	65.9	–	TY22776 (antibody, V domains shown) VH: EVQLVESGGGLVQPGGSLRLSCAASGYSISSGYHWSWIRQAPGKGLEWLARIDWDDDKYYSTSLKSRLTISRDNSKNTLYLQLNSLRAEDTAVYYCARSYVYFDYWGQGTLVTVSS VL: EVGSSDCVPYYYACAYSGRSAGGGGTPLGLAGSGGSDIQLTQSPSSLSASVGDRVTITCRASQSVRGRFLAWYQQKPGKAPKLLIYDASNRATGIPSRFSGSGSGTDFTLTISSLQPEDFATYYCQQSSSWPPTFGQGTKVEIKR
–	–	–	–	–	88.1	TY22871 (antibody, V domains shown) VH: EVQLVESGGGLVQPGGSLRLSCAASGYSISSGYHWSWIRQAPGKGLEWLARIDWDDDKYYSTSLKSRLTISRDNSKNTLYLQLNSLRAEDTAVYYCARSYVYFDYWGQGTLVTVSS VL: DIQLTQSPSSLSASVGDRVTITCRASQSVRGRFLAWYQQKPGKAPKLLIYDASNRATGIPSRFSGSGSGTDFTLTISSLQPEDFATYYCQQSSSWPPTFGQGTKVEIKR
binds	binds	binds	–	–	–	YLGIG105FVGMG (receptor, Homo sapiens, UniProt P16410 36-161, looked up) CTLA4: KAMHVAQPAVVLASSRGIASFVCEYASPGKATEVRVTVLRQADSQVTEVCAATYMMGNELTFLDDSICTGTSSGNQVNLTIQGLRAMDTGLYICKVELMYPPPYFVGMGNGTQIYVIDPEPCPDSD
